{"source": "patent US6946133", "key": {"[1]": {"biological_target": "T1, HLA class I-A2 molecule (human), P04439", "T1 chain": "not shown", "assay": "T2 cell binding assay, peptide 50 µg/ml, HLA-A2 upregulation read with MAb A2,69 by flow cytometry"}, "[2]": {"biological_target": "T1, HLA class I-A2 molecule (human), P04439", "assay": "T2 binding assay, peptide 50 µg/ml for 24 h, anti-HLA-A2 mAb, flow cytometry; cut off for positivity 100"}}, "data": [{"binder": "FLTPKKLQCV (modifications not checked)", "note": "[PSA peptide 141-150]", "values": [{"measurement": "mean channel fluorescent intensity", "setting": "[1]", "result": 230}, {"measurement": "T2 binding, relative fluorescence (mean intensity)", "setting": "[2]", "result": 128}]}, {"binder": "FLTPKKLQCVDLHVISNDVCAQVHPQKVTK (modifications not checked)", "note": "[prostate specific antigen oligo-epitope peptide (PSA-OP)]", "values": [{"measurement": "T2 binding, relative fluorescence (mean intensity)", "setting": "[2]", "result": 63.3}]}, {"binder": "KLQCVDLHV (modifications not checked)", "note": "[PSA peptide 146-154]", "values": [{"measurement": "mean channel fluorescent intensity", "setting": "[1]", "result": 224}]}]}
